The subject of this data set is Escherichia coli TOP10. Description: shrunken log2 fold change of peptide-encoding DNA abundance (4.5 h post-induction vs induction); higher = less antimicrobial activity (less host growth inhibition). The settings on record: time post-induction: 4.5 h; library: site-saturation at positions 5, 18, 19, 20.
As for RRIRYRPPRLPRPRPRPEPRPRP, the “shrunken log2 fold change” value is 0.408.
In the case of RRIRQRPPRLPRPRPRPPNTPRP, the “shrunken log2 fold change” value was -0.0954.
With RRIRNRPPRLPRPRPRPPVYPRP, the “shrunken log2 fold change” value was determined as 0.111.
In the case of RRIRTRPPRLPRPRPRPWICPRP it was 0.0207.
As to RRIRGRPPRLPRPRPRPGLSPRP, the “shrunken log2 fold change” value stood at 1.12.
Consider RRIRNRPPRLPRPRPRPTERPRP, for which the “shrunken log2 fold change” value was -0.25.
As to RRIRERPPRLPRPRPRPSSLPRP, the “shrunken log2 fold change” value is -0.223.
As for RRIRKRPPRLPRPRPRPVTPPRP, the “shrunken log2 fold change” value worked out at 0.307.
On to RRIRGRPPRLPRPRPRPTCNPRP, for which the “shrunken log2 fold change” value was found to be 0.7.
Consider RRIRNRPPRLPRPRPRPVPYPRP, for which the “shrunken log2 fold change” value is 0.0481.
As to RRIRERPPRLPRPRPRPNHPPRP, the “shrunken log2 fold change” value was -0.278.
Turning to RRIRNRPPRLPRPRPRPNMGPRP, the “shrunken log2 fold change” value is -0.00804.
Regarding RRIRDRPPRLPRPRPRPGSAPRP, the “shrunken log2 fold change” value came out at 0.238.
With RRIRYRPPRLPRPRPRPKIDPRP, the “shrunken log2 fold change” value is -0.344.
In the case of RRIRYRPPRLPRPRPRPEDWPRP it was -0.252.
RRIRERPPRLPRPRPRPDHYPRP: the “shrunken log2 fold change” value was -0.738.
Under RRIRRRPPRLPRPRPRPDNDPRP stands 0.104; under RRIRPRPPRLPRPRPRPIPLPRP, -0.191.
On to RRIRIRPPRLPRPRPRPGIPPRP, for which the “shrunken log2 fold change” value is -0.225.
With RRIRMRPPRLPRPRPRPKKIPRP, the “shrunken log2 fold change” value was 0.599.
Under RRIRNRPPRLPRPRPRPVAKPRP stands -0.107.
In the case of RRIRMRPPRLPRPRPRPAKGPRP it was 0.271.
For the sequence RRIRVRPPRLPRPRPRPSYGPRP, the “shrunken log2 fold change” value is -0.369.
For RRIRNRPPRLPRPRPRPTQSPRP, the “shrunken log2 fold change” value is 0.291.
Take RRIRQRPPRLPRPRPRPMLQPRP: the “shrunken log2 fold change” value was found to be 0.00663.
Under RRIRHRPPRLPRPRPRPQQWPRP stands -0.178; under RRIRIRPPRLPRPRPRPAFIPRP, -0.509.
Consider RRIRERPPRLPRPRPRPEANPRP, for which the “shrunken log2 fold change” value is -0.00156.
In the case of RRIRYRPPRLPRPRPRPRWMPRP, the “shrunken log2 fold change” value was -0.208.
In the case of RRIRPRPPRLPRPRPRPCPNPRP, the “shrunken log2 fold change” value is -0.0908.
Regarding RRIRERPPRLPRPRPRPERWPRP, the “shrunken log2 fold change” value was -0.00254.
Consider RRIRRRPPRLPRPRPRPVHEPRP, for which the “shrunken log2 fold change” value stood at 0.381.
For the sequence RRIRQRPPRLPRPRPRPFPMPRP, the “shrunken log2 fold change” value amounted to 0.155.
On to RRIRARPPRLPRPRPRPHNLPRP, for which the “shrunken log2 fold change” value is -0.201.
Turning to RRIRYRPPRLPRPRPRPRFLPRP, the “shrunken log2 fold change” value is -0.42.
In the case of RRIRYRPPRLPRPRPRPFCGPRP, the “shrunken log2 fold change” value was -0.133.
Take RRIRSRPPRLPRPRPRPGWCPRP: the “shrunken log2 fold change” value amounted to 0.0616.
With RRIRDRPPRLPRPRPRPPLSPRP, the “shrunken log2 fold change” value stood at 0.0434.
In the case of RRIRHRPPRLPRPRPRPEDIPRP, the “shrunken log2 fold change” value is -0.00674.
Regarding RRIRMRPPRLPRPRPRPDQSPRP, the “shrunken log2 fold change” value was 0.0283.
For RRIRYRPPRLPRPRPRPTRRPRP, the “shrunken log2 fold change” value came out at 0.358.
Under RRIRWRPPRLPRPRPRPATDPRP stands 0.258.
For the sequence RRIRKRPPRLPRPRPRPNKDPRP, the “shrunken log2 fold change” value was determined as 0.0544.
Under RRIRPRPPRLPRPRPRPVQIPRP stands -0.13; under RRIRHRPPRLPRPRPRPTDKPRP, -0.185.
Take RRIRRRPPRLPRPRPRPVPEPRP: the “shrunken log2 fold change” value is 0.543.
Take RRIRERPPRLPRPRPRPIKTPRP: the “shrunken log2 fold change” value is -0.139.
For the sequence RRIRDRPPRLPRPRPRPWIRPRP, the “shrunken log2 fold change” value is -0.24.
Regarding RRIRFRPPRLPRPRPRPPTMPRP, the “shrunken log2 fold change” value is 0.166.
Turning to RRIRMRPPRLPRPRPRPSTQPRP, the “shrunken log2 fold change” value turned out to be 0.148.
For the sequence RRIRFRPPRLPRPRPRPCTYPRP, the “shrunken log2 fold change” value was -0.384.
For RRIRKRPPRLPRPRPRPDMAPRP, the “shrunken log2 fold change” value was found to be 0.0491.
As for RRIRVRPPRLPRPRPRPQIMPRP, the “shrunken log2 fold change” value was -0.745.
Under RRIRKRPPRLPRPRPRPHQIPRP stands 0.0638; under RRIRLRPPRLPRPRPRPLSQPRP, 0.00591.
On to RRIRRRPPRLPRPRPRPFMNPRP, for which the “shrunken log2 fold change” value is 0.0829.
Turning to RRIRFRPPRLPRPRPRPAIIPRP, the “shrunken log2 fold change” value was -0.149.
Turning to RRIRQRPPRLPRPRPRPAQTPRP, the “shrunken log2 fold change” value was found to be 0.13.
Consider RRIRSRPPRLPRPRPRPWMLPRP, for which the “shrunken log2 fold change” value is -0.14.
As to RRIRNRPPRLPRPRPRPWKGPRP, the “shrunken log2 fold change” value was -0.0198.
Turning to RRIRWRPPRLPRPRPRPIYKPRP, the “shrunken log2 fold change” value is -0.596.
On to RRIRARPPRLPRPRPRPGRCPRP, for which the “shrunken log2 fold change” value was 0.745.
In the case of RRIRDRPPRLPRPRPRPKDFPRP, the “shrunken log2 fold change” value is -0.00804.
On to RRIRHRPPRLPRPRPRPNRRPRP, for which the “shrunken log2 fold change” value was -0.00884.
Turning to RRIRSRPPRLPRPRPRPFWNPRP, the “shrunken log2 fold change” value is -0.139.
As for RRIRCRPPRLPRPRPRPIMRPRP, the “shrunken log2 fold change” value was determined as 0.415.
Regarding RRIRARPPRLPRPRPRPLCNPRP, the “shrunken log2 fold change” value is -0.0439.
In the case of RRIRGRPPRLPRPRPRPCHIPRP, the “shrunken log2 fold change” value is -0.028.
As to RRIRSRPPRLPRPRPRPNCKPRP, the “shrunken log2 fold change” value was -0.228.
With RRIRNRPPRLPRPRPRPNAWPRP, the “shrunken log2 fold change” value is 0.000665.
Turning to RRIRHRPPRLPRPRPRPTKRPRP, the “shrunken log2 fold change” value is -0.0644.
In the case of RRIRDRPPRLPRPRPRPYKQPRP it was -0.0404.
Regarding RRIRMRPPRLPRPRPRPATCPRP, the “shrunken log2 fold change” value is 0.398.
Regarding RRIRFRPPRLPRPRPRPWVPPRP, the “shrunken log2 fold change” value was determined as 0.0548.
Turning to RRIRHRPPRLPRPRPRPRDVPRP, the “shrunken log2 fold change” value is -0.191.
On to RRIRIRPPRLPRPRPRPMGEPRP, for which the “shrunken log2 fold change” value is -0.0442.
In the case of RRIRSRPPRLPRPRPRPKVCPRP, the “shrunken log2 fold change” value stood at 0.00182.
Under RRIRFRPPRLPRPRPRPIGRPRP stands 0.00988; under RRIRLRPPRLPRPRPRPQAYPRP, -0.126.
For RRIRRRPPRLPRPRPRPIDSPRP, the “shrunken log2 fold change” value was -0.0316.
With RRIRGRPPRLPRPRPRPWTDPRP, the “shrunken log2 fold change” value is -0.211.
As for RRIRHRPPRLPRPRPRPNHEPRP, the “shrunken log2 fold change” value was -0.493.
In the case of RRIRTRPPRLPRPRPRPVKNPRP it was -0.284; in that of RRIRVRPPRLPRPRPRPYQSPRP, -0.0308.
In the case of RRIRPRPPRLPRPRPRPWMKPRP, the “shrunken log2 fold change” value is -0.0651.
As for RRIRNRPPRLPRPRPRPFCCPRP, the “shrunken log2 fold change” value was -0.257.
In the case of RRIRARPPRLPRPRPRPPLNPRP it was 0.612.
As for RRIRIRPPRLPRPRPRPPTGPRP, the “shrunken log2 fold change” value amounted to 0.209.
In the case of RRIRSRPPRLPRPRPRPARFPRP it was 0.181; in that of RRIRSRPPRLPRPRPRPIYEPRP, -0.134.
For the sequence RRIRIRPPRLPRPRPRPGAAPRP, the “shrunken log2 fold change” value was 0.18.
Under RRIRVRPPRLPRPRPRPKPMPRP stands 0.131; under RRIRDRPPRLPRPRPRPQCTPRP, 0.191; under RRIRSRPPRLPRPRPRPQMCPRP, -0.724.
As for RRIRERPPRLPRPRPRPQKYPRP, the “shrunken log2 fold change” value was -1.15.
As to RRIRNRPPRLPRPRPRPGYRPRP, the “shrunken log2 fold change” value is -0.514.
As to RRIRNRPPRLPRPRPRPDRFPRP, the “shrunken log2 fold change” value is -0.148.
With RRIRWRPPRLPRPRPRPEEHPRP, the “shrunken log2 fold change” value came out at 0.23.
On to RRIRPRPPRLPRPRPRPVLRPRP, for which the “shrunken log2 fold change” value amounted to 0.303.
As for RRIRVRPPRLPRPRPRPYAFPRP, the “shrunken log2 fold change” value is -0.0621.
Turning to RRIRQRPPRLPRPRPRPRWGPRP, the “shrunken log2 fold change” value is 0.447.
Under RRIRQRPPRLPRPRPRPRSWPRP stands 0.681; under RRIRVRPPRLPRPRPRPADHPRP, 0.206.
For the sequence RRIRMRPPRLPRPRPRPVDIPRP, the “shrunken log2 fold change” value was -0.0631.
Take RRIRQRPPRLPRPRPRPDARPRP: the “shrunken log2 fold change” value turned out to be 0.422.
In the case of RRIRGRPPRLPRPRPRPCIDPRP it was 0.877; in that of RRIRKRPPRLPRPRPRPQWYPRP, -0.145.
In the case of RRIRMRPPRLPRPRPRPNRTPRP, the “shrunken log2 fold change” value came to 0.13.
Take RRIRHRPPRLPRPRPRPTQTPRP: the “shrunken log2 fold change” value is -0.0128.
Under RRIRLRPPRLPRPRPRPANRPRP stands -0.133; under RRIRCRPPRLPRPRPRPAGNPRP, 0.0404.
As for RRIRGRPPRLPRPRPRPDQRPRP, the “shrunken log2 fold change” value came to 0.55.
In the case of RRIRMRPPRLPRPRPRPPHYPRP, the “shrunken log2 fold change” value amounted to 0.728.
Under RRIRSRPPRLPRPRPRPMGSPRP stands -0.205; under RRIRWRPPRLPRPRPRPTKRPRP, 0.202; under RRIRYRPPRLPRPRPRPVSMPRP, -0.00201.
As for RRIRLRPPRLPRPRPRPHESPRP, the “shrunken log2 fold change” value was -0.0598.
Consider RRIRSRPPRLPRPRPRPENEPRP, for which the “shrunken log2 fold change” value was -0.0857.
As to RRIRRRPPRLPRPRPRPPTWPRP, the “shrunken log2 fold change” value turned out to be 0.336.
As for RRIRPRPPRLPRPRPRPRWYPRP, the “shrunken log2 fold change” value is -0.0594.
As for RRIRYRPPRLPRPRPRPSPWPRP, the “shrunken log2 fold change” value is -0.513.
Regarding RRIRNRPPRLPRPRPRPTRLPRP, the “shrunken log2 fold change” value was 0.2.
With RRIRKRPPRLPRPRPRPMEEPRP, the “shrunken log2 fold change” value was 0.371.
For the sequence RRIRPRPPRLPRPRPRPIIMPRP, the “shrunken log2 fold change” value came out at 0.195.
In the case of RRIRARPPRLPRPRPRPFAIPRP it was -0.239.
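Further: peptides expressed intracellularly from a pBAD plasmid library in pooled LB shake-flask culture, induced with 0.3% L-arabinose, DNA abundance read by NGS, three biological replicates, DESeq2 with apeglm shrinkage.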
